# From publication PMC4980427, “Ctf4 Links DNA Replication with Sister Chromatid Cohesion Establishment by Recruiting the Chl1 Helicase to the Replisome” (Molecular Cell, 2016)
# Target: the molecule itself
# Assay: negative-stain single-particle EM of reconstituted assemblies; purified Ctf4 core, GINS and Chl1 mixed in equimolar amounts; reconstituted assemblies on silver-stained gel and two-dimensional class averages
protein,measurement,value
"Ctf4 (residues 471–927) (domain or fragment, S. cerevisiae, UniProt Q01454 471-927, looked up, Ctf4 C-terminal trimerization core that contains the CIP box acceptor, residues 471-927; also called Ctf4 C-terminal trimerization core; Ctf4 core; source: E. coli, overexpressed, purified) TGKFRYMPFSPAGTPFGFTDRRYLTMNEVGYVSTVKNSEQYSITVSFFDVGRFREYHFEDLFGYDLCFLNEKGTLFGQSKTGQIQYRPHDSIHSNWTKIIPLQAGERITSVAATPVRVIVGTSLGYFRSFNQFGVPFAVEKTSPIVALTAQNYRVFSVHYSQFHGLSYSLSELGTSSKRYYKRECPLPMSLPNINSDMKKDANLDYYNFNPMGIKSLFFSSYGDPCIFGSDNTLLLLSKWRSPEESKWLPILDSNMEIWKMSGGKETTDIHVWPLALAYDTLNCILVKGKHIWPEFPLPLPSEMEIRMPVFVKSKLLEENKAILNKKNEIGADTEAEEGEEDKEIQIPVSMAAEEEYLRSKVLSELLTDTLENDGEMYGNENEVLAALNGAYDKALLRLFASACSDQNVEKALSLAHELKQDRALTAAVKISERAELPSLVKKINNIREARYEQQLK",stoichiometry N,3
